Results taken from patent publication US20220048990A1.

Tests used:
[1] = biological target: T1, Mouse polymeric immunoglobulin receptor (mouse) (UniProt O70570); experiment: SPR (Biacore); panel shown again on D00107
T1 sequence (looked up): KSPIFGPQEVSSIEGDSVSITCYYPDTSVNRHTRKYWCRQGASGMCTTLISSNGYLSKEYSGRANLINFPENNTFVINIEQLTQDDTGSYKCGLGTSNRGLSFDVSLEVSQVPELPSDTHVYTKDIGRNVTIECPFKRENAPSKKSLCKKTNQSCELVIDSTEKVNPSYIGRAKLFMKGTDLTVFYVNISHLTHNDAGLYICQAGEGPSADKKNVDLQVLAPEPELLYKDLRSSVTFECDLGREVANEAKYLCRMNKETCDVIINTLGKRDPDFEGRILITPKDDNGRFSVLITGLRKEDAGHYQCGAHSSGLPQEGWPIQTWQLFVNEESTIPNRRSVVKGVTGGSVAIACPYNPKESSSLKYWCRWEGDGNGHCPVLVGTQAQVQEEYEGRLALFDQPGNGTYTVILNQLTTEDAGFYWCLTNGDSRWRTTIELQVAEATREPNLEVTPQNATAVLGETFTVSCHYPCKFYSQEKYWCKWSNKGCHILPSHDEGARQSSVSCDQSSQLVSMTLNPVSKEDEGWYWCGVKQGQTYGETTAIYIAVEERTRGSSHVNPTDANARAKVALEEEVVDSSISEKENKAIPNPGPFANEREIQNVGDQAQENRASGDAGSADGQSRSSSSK

[2] = biological target: Human polymeric immunoglobulin receptor (human) (UniProt P01833); experiment: SPR (Biacore)
UniProt P01833, sequence (P01833 19-638 limits assumed): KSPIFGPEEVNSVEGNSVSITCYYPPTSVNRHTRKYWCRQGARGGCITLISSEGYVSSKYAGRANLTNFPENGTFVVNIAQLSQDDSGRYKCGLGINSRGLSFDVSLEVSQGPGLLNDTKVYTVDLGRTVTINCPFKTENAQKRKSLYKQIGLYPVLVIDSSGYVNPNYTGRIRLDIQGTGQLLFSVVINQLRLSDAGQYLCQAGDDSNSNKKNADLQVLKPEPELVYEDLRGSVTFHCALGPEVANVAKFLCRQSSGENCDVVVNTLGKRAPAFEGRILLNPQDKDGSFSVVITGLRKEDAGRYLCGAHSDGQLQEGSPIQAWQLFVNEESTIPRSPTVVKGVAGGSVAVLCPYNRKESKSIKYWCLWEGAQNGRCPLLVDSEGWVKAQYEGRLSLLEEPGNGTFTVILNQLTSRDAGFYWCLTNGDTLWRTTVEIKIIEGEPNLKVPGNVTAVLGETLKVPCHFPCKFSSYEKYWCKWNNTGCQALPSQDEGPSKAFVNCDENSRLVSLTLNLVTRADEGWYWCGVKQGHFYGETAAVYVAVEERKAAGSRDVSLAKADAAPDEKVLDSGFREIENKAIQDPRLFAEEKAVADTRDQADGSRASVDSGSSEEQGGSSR

[3] = biological target: T1, Mouse polymeric immunoglobulin receptor (mouse); experiment: SPR (Biacore)
Human FcαRI (human) = Human FcαRI (human) (UniProt P24071); experiment: Wasatch array SPR, antibody immobilised, n>=3
UniProt P24071, sequence (P24071 22-227 limits assumed): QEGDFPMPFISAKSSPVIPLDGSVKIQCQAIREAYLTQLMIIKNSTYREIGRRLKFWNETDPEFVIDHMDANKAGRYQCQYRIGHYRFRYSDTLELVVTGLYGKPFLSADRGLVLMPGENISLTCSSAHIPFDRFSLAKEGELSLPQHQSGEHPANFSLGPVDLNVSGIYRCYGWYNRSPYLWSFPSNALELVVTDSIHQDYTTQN

Kd [1] [nM] | Kd [2] [nM] | Kd [3] [nM] | Kd (Human FcαRI (human)) [nM] | Substance
0.79 | 0.98 | 0.79 |  | Glycosylated IgA2m2.Fc only Tetramer
 |  |  | 1750 | Human serum IgA monomer (antibody)
